Here are results for 140 substances from the supplement of paper PMC12042874.

± gives the uncertainty stated by the source.

A short description of this data set: amyloid nucleation score (Sup35N fusion, yeast selection) (log enrichment); library NNK1; higher = more nucleation; inactive = no reads after selection. An outline of the steps:
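Nucleation score: DiMSum log enrichment of output over input reads, centred on the mode score of non-aggregating sequences. Only sequences with at least 100 input reads were kept. Reads came from Illumina sequencing of plasmid inserts before and after 7 days of growth at 30°C without adenine and uracil, in psi-negative yeast expressing Sup35N fused to peptides of 20 random codons after 24 hours of induction with 100 μM copper sulfate.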
Substance LWLIVEDSVYFVGMQGHIFN came in with an amyloid nucleation score of -0.381 ± 0.39. Substance RYWLYVKFGWYLTDGFYSGS registered an amyloid nucleation score of 0.665 ± 0.29. The figure for GCTGPHFVYTDGRMHWSGSS is -0.529 ± 0.49; for VNGYFAASDECFWCRSAGPN it is 0.555 ± 0.34. The figure for SVPVSTTDWNSGFLWAGGCS is 0.513 ± 0.52; for VLFGWGCGNTFSRPSNRGQR it is 0.97 ± 0.37.

Consider LRIFSKLFTSSLYNCFEGIP, for which the amyloid nucleation score was 0.143 ± 0.58. Substance SLIYGILCKINQ gave an amyloid nucleation score of -0.064 ± 0.44. In the case of ISCRFAMVLGLKSWILTYV, the amyloid nucleation score result is “inactive”. Then CVSEDDMLLDYDPVCKFVWW, with 2.62 ± 0.15; and PWCTGRLTGSNCKVYWITRS, with 0.515 ± 0.36. Then IQPLIWANYFVIGARV, with 3.66 ± 0.1. As for WRDTDCGLIN, the amyloid nucleation score entry was “inactive”. For IVGVEGLKPIKAPLLLNRSV, the amyloid nucleation score result was “inactive”. The figure for QIRGGGAGSDSVDGHRALEA is 1.08 ± 0.59. In the case of AESWCAGSKIIHSIGWSKDR, the amyloid nucleation score was found to be 0.589 ± 0.54. The substance ENRTSNFPYKVR showed an amyloid nucleation score of 0.421 ± 0.26.

HGAVLCC displayed an amyloid nucleation score of 0.305 ± 1.4. The substance RILTDLRKICADCNRILPFW showed an amyloid nucleation score of -0.557 ± 1.2. For HTPLNRC, the amyloid nucleation score was -0.469 ± 1.4. For the substance HTVNLAPRNPDPPS, the amyloid nucleation score was determined as 0.259 ± 0.77. In turn, VPRLLYQFLTSHTVVDSPEV showed an amyloid nucleation score of -0.069 ± 0.56. Turning to KCLSLNCMPYTFLLSRYYPY, the amyloid nucleation score result was “inactive”. Consider PVGRCDQRDTRIHWGNYKVE, for which the amyloid nucleation score result is “inactive”. In turn, FNTALSDPYVTMWHYYTNYC showed an amyloid nucleation score of -0.8 ± 0.63.

Turning to FVCSVFKSYCKSRVFFARAT, the amyloid nucleation score was -0.025 ± 0.28. Regarding RSPIGGLLWINLRSPACEWG, the amyloid nucleation score result was “inactive”.

FVYDFNGKKFLGLSCALYII had an amyloid nucleation score of 0.22 ± 1.2.

In turn, FNSYKGLIVQKYPSMTLN registered an amyloid nucleation score of 0.302 ± 1. Take RVVMLCLVCLFGVRGS: the amyloid nucleation score was found to be 0.827 ± 0.52. The substance SVKSIRCLCSVVEYKETGHR had an amyloid nucleation score of 0.438 ± 0.34. LFVRFKTYVLP returned an amyloid nucleation score of 0.663 ± 0.3. Take FATIVFVVKNENFMNADTLR: the amyloid nucleation score worked out at 5.68 ± 0.08. DGRRTDWVLCNGARIRTCYD returned an amyloid nucleation score of -0.316 ± 0.44. Turning to MFCLALECEVHLGMHYYNHA, the amyloid nucleation score is 0.906 ± 0.2. For QTLGVGSRYVNVNSGLITQL, the amyloid nucleation score is -0.05 ± 0.29. FFAGSQIFIHRSLEWI displayed an amyloid nucleation score of 1.68 ± 0.17.

As for YFSGLKDFILISNQNGSS, the amyloid nucleation score was 2.66 ± 0.2. AGVIDT: the amyloid nucleation score amounted to 0.171 ± 0.79. On to ECDSAFRSQGGGLACLFRMK, for which the amyloid nucleation score is -0.171 ± 0.42.

Take LCTLCIALPVMRVLSTVPVP: the amyloid nucleation score worked out at 0.267 ± 0.59. With FWRKENGYWLGFMPLVREGT, the amyloid nucleation score was 0.247 ± 0.35. NGMSSFRCLYMWARTFPVSN displayed an amyloid nucleation score of -0.424 ± 0.99. For RPNSYGSLWRERIGLIYTYE, the amyloid nucleation score stood at 1.33 ± 0.79. The substance SIYALVSCSVFVTAMDAVQA returned an amyloid nucleation score of 4.17 ± 0.061.

In turn, VGYGASMYYYFFWHKFFLVF gave an amyloid nucleation score of 0.037 ± 1. YNKVDM gave an amyloid nucleation score of -0.316 ± 0.53. The substance NGFLHIRLRISALCELL showed an amyloid nucleation score of 0.137 ± 0.57. Then SWQSVSSAISV, with -0.234 ± 0.85. In turn, VLHEGCIMFKKLLLKALCRR came in with an amyloid nucleation score of -0.128 ± 0.45.

FTYSLFCAYI had an amyloid nucleation score of 1.18 ± 0.66. The figure for FHTRVKEWVGPAFLGSANLG is 0.25 ± 0.5. VVLTYSWGAYRY: the amyloid nucleation score worked out at 1.26 ± 0.23. The figure for HFGDGILLI is -1.21 ± 1.7; for TLLYPYMVPLRRKSLWGAVR it is 1.36 ± 0.35; for GWSNSFA it is 0.123 ± 0.44.

As to DYFIVGTSVGGDSVTLDNQM, the amyloid nucleation score amounted to 0.042 ± 0.34. In the case of FYGCFRVHCVISMLGWR, the amyloid nucleation score turned out to be 0.109 ± 0.36. The figure for YVSDFKADTATLSSDLCQLA is -0.183 ± 0.73. The figure for CLNSHFGKNISNLFVCDLVC is 0.484 ± 0.61. Then MWPRIPLRDPVVWEHRYCGI, with -0.391 ± 0.65; and QTGRFDIVSAS, with 3.52 ± 0.069. SHGVVYGFIMLVMEEYLRQQ returned an amyloid nucleation score of -0.376 ± 0.27. The substance KSDLLNMRWVGYWFIVSSMR registered an amyloid nucleation score of 0.099 ± 0.67. VSDRRTGVLRIHCNFKVGLS displayed an amyloid nucleation score of 1.89 ± 0.16.

FRGWV came in with an amyloid nucleation score of 1.62 ± 0.12. In the case of YLDGVECTN, the amyloid nucleation score is -0.366 ± 0.63. Regarding RRYFSLYLAGSLELMFAWVM, the amyloid nucleation score was -1.79 ± 2.7. Take TITIVVRYVETRCGNIRDVE: the amyloid nucleation score came to 0.794 ± 0.45. With EIASLTRCYRSYRIVSWLRG, the amyloid nucleation score amounted to 0.341 ± 0.37. ISPLSQYARLVRQVSRAWYD yielded an amyloid nucleation score of 0.569 ± 0.87. Regarding YYVFITIYVVSLVCNLSCYF, the amyloid nucleation score is -0.573 ± 0.74.

The substance SCSLITQGFRYPWLIYHRCY returned an amyloid nucleation score of 0.436 ± 0.93. The figure for QSFFHCVLYAIPHVRLS is -1.07 ± 1.1. For the substance HIAHTEPGAIWV, the amyloid nucleation score result is “inactive”. Turning to NAFQRV, the amyloid nucleation score stood at 0.6 ± 0.72. For TSPDYPRRYVQMSRR, the amyloid nucleation score came to 0.507 ± 0.52. As to RILMFKYGKTWRPQCCQD, the amyloid nucleation score is 0.04 ± 0.53. The figure for LFMIMLL is -1.01 ± 0.43; for VFFGLTICFFVAHHCQERGS it is 2.54 ± 0.21; for NWFTSMRGLYVSLWYRMKKG it is “inactive”. Substance KVWSGCSAPQ had an amyloid nucleation score of 2.09 ± 0.43. Consider GPVRQHCYCDMTTVFRILGA, for which the amyloid nucleation score is -1.55 ± 1.4. The substance ENWATFEEYPT displayed an amyloid nucleation score of 0.243 ± 0.3. Then EWVLFDAHAGRLVVPEH, with -0.995 ± 1; and RFLYVGCCINTIVGFTWFRS, with 3.28 ± 0.11. RSGIILLVGVS registered an amyloid nucleation score of -0.655 ± 0.68. For the substance GVVITSPWGA, the amyloid nucleation score was 1.18 ± 0.85. SLDYKFSFLSQ returned an amyloid nucleation score of 6.963 ± 0.045. Substance SYPTKLPWFGGGYNRGSMSS came in with an amyloid nucleation score of -0.481 ± 0.58. For the substance YQTWRQWLLFACRVSECYDM, the amyloid nucleation score is -0.508 ± 1.1.

For LCELQYAKWIMKLVYKTFTT, the amyloid nucleation score entry is “inactive”. For the substance TGKNSC, the amyloid nucleation score came out at 3.44 ± 0.099. Take DAPVTSSGSML: the amyloid nucleation score stood at 0.008 ± 0.23. The figure for LFYNICFYA is 6.738 ± 0.048; for FSGHFNARGFSDSWYVCMIG it is -0.855 ± 1.6; for DDYTGSEVNIITIV it is -1.43 ± 0.44.

Consider PFNKKFRYVMPRLQRTHVFM, for which the amyloid nucleation score entry was “inactive”. Substance ILSGRRDNSAERGRGGLWVM registered an amyloid nucleation score of -0.206 ± 1.2. Regarding VFLVTIWRSIMVLWNTVW, the amyloid nucleation score is -0.284 ± 0.47. Then GRMTVRNCGQDPLVFRTYQG, with -1.13 ± 2.7. Then YYKYKLLLIKLVLGGAGRPV, with -0.054 ± 0.56; and FKYYQAGSYNRKRMTQDGGS, with 0.175 ± 0.46. Substance SDRNERSVLSTCFGGCVPTG gave an amyloid nucleation score of 1.14 ± 0.24. LNGVNLRGFTRWLVGCGDVD registered an amyloid nucleation score of 0.141 ± 0.65. The substance MRGTSEFYLVRGRYTCISRG returned an amyloid nucleation score of -0.292 ± 0.45. Then ITYIRHYCKPVVL, with 5.65 ± 0.11; and SCLPDQMKVVVPLMWLKFSR, with -0.266 ± 0.33. In the case of LAPNNYAFHVNKSWGMNLVW, the amyloid nucleation score amounted to 1.05 ± 0.2. In turn, HYGSWLCELDVVLYCDCSVM returned an amyloid nucleation score of 0.021 ± 0.62.

In turn, VCTCFSSWAWEVNF returned an amyloid nucleation score of 3.28 ± 0.083.

ANGMEGL gave an amyloid nucleation score of 1.13 ± 0.81. Then YANCL, with 0.517 ± 0.44; and VITVRLFILW, with -0.213 ± 0.43.

Turning to PVFCPRV, the amyloid nucleation score is -1.55 ± 1.3. Turning to ISAMSVW, the amyloid nucleation score is -0.031 ± 0.74. The substance GHSFGTVTDCVANQYNFLNI yielded an amyloid nucleation score of 2.37 ± 0.19.

For the substance YLCGHLMNTLYAILNVRRAL, the amyloid nucleation score amounted to 0.888 ± 0.9. The substance SSSRNLVSSRCLQVYLPMHA yielded an amyloid nucleation score of 0.986 ± 0.71. With YKESPYNYTWGTVLVGCMVI, the amyloid nucleation score was -0.702 ± 1.1. FVLSIFYIWGKSPSRTYWMN gave an amyloid nucleation score of -0.322 ± 0.74. ELYSDHIMTWM yielded an amyloid nucleation score of 0.69 ± 0.36.

The substance ALRGMWNKVRSGGWCYRCTW showed an amyloid nucleation score of -0.05 ± 1.4. DVAPLGCGEPCYGSY showed an amyloid nucleation score of -1.22 ± 1.4.

As for CIMPMIGKYVGVFSSGSSIS, the amyloid nucleation score entry is “inactive”. The substance DTNKNFSFSKAQ came in with an amyloid nucleation score of -0.081 ± 0.37. Take SLSFSCSVKV: the amyloid nucleation score was -0.149 ± 0.54. Then ILYGISSFESIADWAGLMSV, with 0.535 ± 0.84.

The substance IDCGIVRWKNRCGAYAFGVD returned an amyloid nucleation score of -1.52 ± 2.4. Then FPYRGLLFTRLIPAAVGKGA, with 0.171 ± 0.74; and NFRAWS, with 0.129 ± 0.93; and CFLETMDFGH, with -0.472 ± 1.2. In turn, NGRFSADS registered an amyloid nucleation score of -1.77 ± 1.6. For LVSLRSIRSRRWCSRQFWSM, the amyloid nucleation score was -0.111 ± 0.5.

PSNLRDWHSSQFNREEEDAY returned an amyloid nucleation score of 0.467 ± 0.46. Then EDHVVYQSADRFLRNCNWEY, with 0.266 ± 0.43; and HVHWPLLNNAYAS, with 0.867 ± 0.93; and MAVERLGSQVERDIRGWWRV, with 0.063 ± 0.59. For the substance FQVLYNGVMCHYSCWCVWKV, the amyloid nucleation score turned out to be 1.05 ± 0.19. As for NSSYTCPNFRHTFCRYICYA, the amyloid nucleation score stood at 0.533 ± 0.27.
